Measured values as given in patent publication US20100055103A1 (published 2010).
Where two headings read alike, the source gives them in different places. Blank lines part the entries; values can stand above or below the binder they belong to.

Experiments:
Test in all cases: BIAcore
[1] = target: Bi-specific
[2] = target: T1, Human IL-17A (R&D Systems, cat #317-IL-050/CF) (UniProt Q16552 20-155)
[3] = target: T2, Human IL-17F (R&D Systems, cat #1335-IL-025/CF) (UniProt Q96PD4 31-163)
T2 chain: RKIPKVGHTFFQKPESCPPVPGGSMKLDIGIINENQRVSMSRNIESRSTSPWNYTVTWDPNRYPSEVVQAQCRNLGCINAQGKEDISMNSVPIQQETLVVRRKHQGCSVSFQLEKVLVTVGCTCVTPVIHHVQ

[4] = target: T3, Recombinant human IL-17A/F heterodimer (UniProt Q16552 24-155; Q96PD4 31-163)
[5] = target: T1, Human IL-17A (R&D Systems, cat …); remark: listed apart in the source
[6] = target: T2, Human IL-17F (R&D Systems, cat …)
[7] = target: T3, Recombinant human IL-17A/F heterodimer; remark: listed apart in the source
[8] = target: T2, Human IL-17F (R&D Systems, cat …)
[9] = target: cyno IL17F
[10] = target: T1, Human IL-17A (R&D Systems, cat …); remark: listed apart in the source
[11] = target: T3, Recombinant human IL-17A/F heterodimer; remark: listed apart in the source
[12] = target: rhesus IL17A (PUR17200)
[13] = target: cyno IL17F; remark: listed apart in the source
[14] = target: T2, Human IL-17F (R&D Systems, cat …)

T1 sequence (Q16552 20-155): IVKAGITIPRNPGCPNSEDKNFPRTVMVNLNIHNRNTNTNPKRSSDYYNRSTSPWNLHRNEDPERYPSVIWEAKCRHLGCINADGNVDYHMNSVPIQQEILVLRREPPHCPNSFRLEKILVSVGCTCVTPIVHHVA

Kd [8]: 0.019 nM
B4: YW278.15.18.C55S (antibody, V domains shown)
VH: EVQLVESGGGLVQPGGSLRLSCAASGFTFTDYDISWVRQAPGKGLEWVASISPPDSYTYYADSVKGRFTISADTSKNTAYLQMNSLRAEDTAVYYCARYLYWSYVMDYWGQGTLVTVSS
VL: DIQMTQSPSSLSASVGDRVTITCRASQDVSTAVAWYQQKPGKAPKLLIYSASFLYSGVPSRFSGSGSGTDFTLTISSLQPEDFATYYCQQSYTAKLTFGQGTKVEIKR

Kd [3]: 1.59 nM
B9: YW279.1.20 (antibody, V domains shown)
VH: EVQLVESGGGLVQPGGSLRLSCAASGFSFTSYMMSWVRQAPGKGLEWVSTIYPESGATDYADSVKGRFTISADTSKNTAYLQMNSLRAEDTAVYYCAREGYYYSTSIKYYPWFDYWGQGTLVTVSS
VL: DIQMTQSPSSLSASVGDRVTITCRASQRIKRYLAWYQQKPGKAPKLLIYGASSRASGVPSRFSGSGSGTDFTLTISSLQPEDFATYYCQQRFSQHITFGQGTKVEIKR

Kd [2]: 5.09 nM | Kd [3]: 0.0823 nM | Kd [4]: 11.8 nM
B10: YW279.1.21 (antibody, V domains shown)
VH: EVQLVESGGGLVQPGGSLRLSCAASGFSFTSYMMSWVRQAPGKGLEWVSTIYPESGATDYADSVKGRFTISADTSKNTAYLQMNSLRAEDTAVYYCAREGYYYSTSIKYYPWFDYWGQGTLVTVSS
VL: DIQMTQSPSSLSASVGDRVTITCRASQSISSYLAWYQQKPGKAPKLLIYGASSRASGVPSRFSGSGSGTDFTLTISSLQPEDFATYYCQQRYSWHTTFGQGTKVEIKR

Kd [2]: 0.118 nM | Kd [3]: 1.76 nM | Kd [4]: 0.69 nM
B11: YW279.1.22 (antibody, V domains shown)
VH: EVQLVESGGGLVQPGGSLRLSCAASGFSFPSYFISWVRQAPGKGLEWVSMIYPVSGATVYADSVKGRFTISADTSKNTAYLQMNSLRAEDTAVYYCAREGYYYSTSIKYYPWFDYWGQGTLVTVSS
VL: DIQMTQSPSSLSASVGDRVTITCRASQSISSYLAWYQQKPGKAPKLLIYGASSRASGVPSRFSGSGSGTDFTLTISSLQPEDFATYYCQQRYSLPITFGQGTKVEIKR

Continued, binder first:

B1: IL17F (ligand)
chain: RKIPKVGHTFFQKPESCPPVPGGSMKLDIGIINENQRVSMSRNIESRSTSPWNYTVTWDPNRYPSEVVQAQCRNLGCINAQGKEDISMNSVPIQQETLVVRRKHQGCSVSFQLEKVLVTVGCTCVTPVIHHVQ
Kd [1]: 0.71 nM

B2: YW278.15.9 (antibody, V domains shown)
VH: EVQLVESGGGLVQPGGSLRLSCAASGFTFTDYDISWVRQAPGKGLEWVASIDPYEGYTYYADSVKGRFTISADTSKNTAYLQMNSLRAEDTAVYYCARYLYWSYVMDYWGQGTLVTVSS
VL: DIQMTQSPSSLSASVGDRVTITCRASQDVSTAVAWYQQKPGKAPKLLIYSASFLYSGVPSRFSGSGSGTDFTLTISSLQPEDFATYYCQQSQNPQTTFGQGTKVEIKR
Kd [2]: 0.0155 nM | Kd [3]: 0.0181 nM | Kd [4]: 0.0229 nM

B3: YW278.15.3 (antibody, V domains shown)
VH: EVQLVESGGGLVQPGGSLRLSCAASGFTFTDYDISWVRQAPGKGLEWVASISPSDGYTYYADSVKGRFTISADTSKNTAYLQMNSLRAEDTAVYYCARYLYWSYVMDYWGQGTLVTVSS
VL: DIQMTQSPSSLSASVGDRVTITCRASQVISSSLAWYQQKPGKAPKLLIYGASFFYSGVPSRFSGSGSGTDFTLTISSLQPEDFATYYCQQHNDLPLTFGQGTKVEIKR
Kd [2]: 0.0242 nM | Kd [3]: 0.115 nM | Kd [4]: 0.0935 nM | Kd [5]: 0.0152 nM | Kd [6]: 0.0283 nM | Kd [7]: 0.0167 nM

B5: YW278.15.18.C55A (antibody, V domains shown)
VH: EVQLVESGGGLVQPGGSLRLSCAASGFTFTDYDISWVRQAPGKGLEWVASISPPDAYTYYADSVKGRFTISADTSKNTAYLQMNSLRAEDTAVYYCARYLYWSYVMDYWGQGTLVTVSS
VL: DIQMTQSPSSLSASVGDRVTITCRASQDVSTAVAWYQQKPGKAPKLLIYSASFLYSGVPSRFSGSGSGTDFTLTISSLQPEDFATYYCQQSYTAKLTFGQGTKVEIKR
Kd [8]: 0.0186 nM

B6: YW278.15.2.D54E (antibody, V domains shown)
VH: EVQLVESGGGLVQPGGSLRLSCAASGFSFIDYDISWVRQAPGKGLEWVASISPYEGYTYYADSVKGRFTISADTSKNTAYLQMNSLRAEDTAVYYCARYLYWSYVMDYWGQGTLVTVSS
VL: DIQMTQSPSSLSASVGDRVTITCRASQDVSTAVAWYQQKPGKAPKLLIYSASFLYSGVPSRFSGSGSGTDFTLTISSLQPEDFATYYCQQYYIYPATFGQGTKVEIKR
Kd [3]: 0.012 nM

B7: YW278.15.2 (antibody, V domains shown)
VH: EVQLVESGGGLVQPGGSLRLSCAASGFSFIDYDISWVRQAPGKGLEWVASISPYDGYTYYADSVKGRFTISADTSKNTAYLQMNSLRAEDTAVYYCARYLYWSYVMDYWGQGTLVTVSS
VL: DIQMTQSPSSLSASVGDRVTITCRASQDVSTAVAWYQQKPGKAPKLLIYSASFLYSGVPSRFSGSGSGTDFTLTISSLQPEDFATYYCQQYYIYPATFGQGTKVEIKR
Kd [9]: 0.209 nM | Kd [5]: 0.0111 nM | Kd [6]: 0.0315 nM | Kd [7]: 0.0104 nM

B8: YW278.15.18 (antibody, V domains shown)
VH: EVQLVESGGGLVQPGGSLRLSCAASGFTFTDYDISWVRQAPGKGLEWVASISPPDCYTYYADSVKGRFTISADTSKNTAYLQMNSLRAEDTAVYYCARYLYWSYVMDYWGQGTLVTVSS
VL: DIQMTQSPSSLSASVGDRVTITCRASQDVSTAVAWYQQKPGKAPKLLIYSASFLYSGVPSRFSGSGSGTDFTLTISSLQPEDFATYYCQQSYTAKLTFGQGTKVEIKR
Kd [9]: 0.0632 nM | Kd [10]: 0.0189 nM | Kd [8]: 0.0291 nM | Kd [11]: 0.0225 nM | Kd [5]: 0.0137 nM | Kd [6]: 0.0135 nM | Kd [7]: 0.014 nM | Kd [12]: 0.0381 nM | Kd [13]: 0.0861 nM

B12: YW265.01 (antibody, V domains shown)
VL: DIQMTQSPSSLSASVGDRVTITCRASQSISSYLAWYQQKPGKAPKLLIYGASSRASGVPSRFSGSGSGTDFTLTISSLQPEDFATYYCQQYYSSPLTFGQGTKVEIKR
VH: EVQLVESGGGLVQPGGSLRLSCAASGYSFTSPYISWVRQAPGKGLEWVASIFYYSGATDYADSVKGRFTISADTSKNTAYLQMNSLRAEDTAVYYCARGGYGYNQWFYSIYQSYFDYWGQ
Kd [14]: 0.62 nM
